Measured values reported in the supplement of paper PMC12042874.
± gives the uncertainty stated by the source.

Test: amyloid nucleation score (Sup35N fusion, yeast selection) (log enrichment); library NNK2; higher = more nucleation; inactive = no reads after selection
In short: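 Output and input plasmid inserts were sequenced by Illumina after psi-negative yeast carrying Sup35N fused to peptides of 20 random codons had been induced 24 hours with 100 μM copper sulfate and grown 7 days at 30°C on medium lacking adenine and uracil. The nucleation score is the DiMSum log enrichment of output over input reads, centred on the mode score of non-aggregating sequences. Sequences with under 100 input reads were excluded.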

## RFMHGTTCHTKYHRHLSTET
  amyloid nucleation score: 0.766 ± 0.23

## LVLIFMDLSTGWLLSSISDI
  amyloid nucleation score: 2.33 ± 0.066

## YRSSSWVNWIQWH
  amyloid nucleation score: 3.47 ± 0.095

## RQSFVVDNNELCKFTCDYSC
  amyloid nucleation score: 7.376 ± 0.043

## SGYVLNAELNAASLLMCGIG
  amyloid nucleation score: 0.252 ± 0.74

## ALGSRINYQKGLMQNRTGKG
  amyloid nucleation score: -0.649 ± 0.76

## NYSGYLLNASVRRTMRRRVF
  amyloid nucleation score: -1.18 ± 0.47

## GKDGKLTSMAHSYHDYVMRR
  amyloid nucleation score: 0.129 ± 0.26

## LDEPRM
  amyloid nucleation score: 0.16 ± 0.24

## FFYWLAMIW
  amyloid nucleation score: -0.582 ± 0.63

## YYNSCKVN
  amyloid nucleation score: -1.35 ± 1.1

## YIPCDKANRSFENC
  amyloid nucleation score: 1.19 ± 0.35

## DFIEMVLDGCSHGLATVCPT
  amyloid nucleation score: inactive

## SNSLQFYDLKSCDWGVWRCE
  amyloid nucleation score: 4.768 ± 0.038

## GHGFFLTTMSSGNNTDRNSG
  amyloid nucleation score: -1.22 ± 1.1

## YLYILVRNGGASSVC
  amyloid nucleation score: -0.635 ± 0.4

## CRFIRFHYLGYNLGSHHIYI
  amyloid nucleation score: -0.902 ± 0.78

## DVLRLTQTANLLCSSALRSA
  amyloid nucleation score: 1.07 ± 0.12

## YISGWYCVNTVSRNNSYRES
  amyloid nucleation score: -1.72 ± 0.49

## NKLWFWMGHTMSVEFDLIDN
  amyloid nucleation score: inactive

## STVTVGHNSHVCAFIF
  amyloid nucleation score: -0.326 ± 0.54

## FKRRCVDYNFSVVILLH
  amyloid nucleation score: -2.03 ± 0.76

## DVACNTRKPCS
  amyloid nucleation score: -0.908 ± 0.78

## LCIEMD
  amyloid nucleation score: 0.566 ± 0.38

## IFFVSDVESNIGRWLRRCFP
  amyloid nucleation score: 5.465 ± 0.054

## YKRRRWRVENRNGVSFSHTD
  amyloid nucleation score: 0.806 ± 0.3

## SFPLSADEFNCSI
  amyloid nucleation score: -0.314 ± 0.55

## YMHCNNCSNVHVWAKKKCRE
  amyloid nucleation score: 8.432 ± 0.043

## RTVYYHQFPGSGFVYVSGFS
  amyloid nucleation score: -0.324 ± 1.1

## NRRMRKAEPLP
  amyloid nucleation score: 0.644 ± 0.81

## FDWMI
  amyloid nucleation score: 0.926 ± 0.28

## YSNSDTAMSLGARLAYGVL
  amyloid nucleation score: 5.379 ± 0.05

## IGSRSMNYWLVVFD
  amyloid nucleation score: 1.48 ± 0.11

## RVIWSPSRDRSSWFTESEYH
  amyloid nucleation score: -0.278 ± 0.36

## GDPLS
  amyloid nucleation score: 0.162 ± 0.28

## EVRSALYAYEGYLRVFRSFR
  amyloid nucleation score: 0.819 ± 0.46

## GSYCQWIYF
  amyloid nucleation score: 1.99 ± 0.22

## LYTLVFIKNFISMYLREILT
  amyloid nucleation score: -1.8 ± 0.48

## EQIGQ
  amyloid nucleation score: 2.92 ± 0.089

## LELKFFHHPSPCFYNITQSA
  amyloid nucleation score: 3.76 ± 0.092

## HILRRINIWGGFPCMRVSKN
  amyloid nucleation score: -0.755 ± 1.1

## HCRYWVCCQLLVILTYSEAF
  amyloid nucleation score: inactive

## DAMFFKCRMYRAVGRFFREG
  amyloid nucleation score: 0.02 ± 0.28

## SSSEVSFSCYVVDVQLS
  amyloid nucleation score: -0.603 ± 0.49

## TDLWSNYLSGNLVENFITCL
  amyloid nucleation score: -1.96 ± 1.1

## RPGYNQMDFDWRLLIDVFDG
  amyloid nucleation score: -0.133 ± 1

## EPLVKYPEYSFPSMVCMPSI
  amyloid nucleation score: -0.478 ± 0.64

## RCLVREISNPDGSDSIIWLR
  amyloid nucleation score: -0.574 ± 0.55

## VMGGDVYTAFTDAEDVDSWG
  amyloid nucleation score: 0.398 ± 0.22

## LNMMFYYLRFRMHFRWMDC
  amyloid nucleation score: -0.79 ± 0.38

## FYLSLLYGRSRQIGLLIYFQ
  amyloid nucleation score: 0.974 ± 0.15

## DLSCGGRLKMNHYKA
  amyloid nucleation score: -0.686 ± 0.76

## LSFRGDSR
  amyloid nucleation score: 0.243 ± 0.26

## MGMAHFDSQPLGYILGASMC
  amyloid nucleation score: -0.727 ± 0.79

## HDYYMSVSLMGWY
  amyloid nucleation score: -1.02 ± 0.34

## GCHICHRWIKSVYRSNHALM
  amyloid nucleation score: 0.291 ± 0.33

## SISRVVTWNRLRVKACRWAG
  amyloid nucleation score: 0.601 ± 0.28

## YMVMA
  amyloid nucleation score: -0.67 ± 1.1

## AYSGIECGVVQWSFYRRKLI
  amyloid nucleation score: inactive

## PSQAGKIMVLKNTRWNHRDC
  amyloid nucleation score: 1.01 ± 0.52

## VCKMSSLNLCKRP
  amyloid nucleation score: -0.133 ± 1

## SFEPFETLEREVPPPLTWPT
  amyloid nucleation score: 1.99 ± 0.2

## VLSSRLASIEGNKSSVGFYG
  amyloid nucleation score: inactive

## VHQRYRSVRCWNWIVM
  amyloid nucleation score: -0.545 ± 0.48

## CASRC
  amyloid nucleation score: 4.11 ± 0.06

## FRFFCHISMNLGTLWRLDCL
  amyloid nucleation score: -0.405 ± 0.44

## LETGNRRHTEYLCYDVWVIL
  amyloid nucleation score: 0.394 ± 0.39

## WDSRDLMC
  amyloid nucleation score: 0.344 ± 0.39

## LTRCMCPLGDIMRHKEKPEM
  amyloid nucleation score: -1.25 ± 1.1

## YFDGVIWLLTYRIFMANDYS
  amyloid nucleation score: inactive

## DCSLELVNRRGSGIVQCAGY
  amyloid nucleation score: 1.1 ± 0.38

## QIRPLRKRELYSW
  amyloid nucleation score: 2.64 ± 0.066

## YYVWVI
  amyloid nucleation score: -0.698 ± 0.78

## FSVFTD
  amyloid nucleation score: -0.678 ± 0.61

## VSIPLIISTCASLSVCSMTW
  amyloid nucleation score: 8.067 ± 0.034

## LIHLNNAMIEHCMFEVRSFG
  amyloid nucleation score: -0.016 ± 0.26

## RLGIFYKVDLSLVGKVPNST
  amyloid nucleation score: 2.79 ± 0.17

## VFERDMLNWVSLSLDHCWCS
  amyloid nucleation score: 1.31 ± 0.36

## VDQCPYRFKFRVSYMMVFYM
  amyloid nucleation score: 5.67 ± 0.086

## FTRSWFLYTT
  amyloid nucleation score: 3.85 ± 0.095

## LMLIVQDPCLSEINFKLDSG
  amyloid nucleation score: 4.59 ± 0.11

## CAINPKVKRSFLVI
  amyloid nucleation score: -1.73 ± 1.1

## IYVRLLDSDTSYWVQFVFLQ
  amyloid nucleation score: inactive

## FDPLTFFGHRYCMQDMQLSD
  amyloid nucleation score: -0.027 ± 0.32

## FYFCF
  amyloid nucleation score: 7.59 ± 0.03

## IKLDIYNWAFSFNWFDK
  amyloid nucleation score: 6.05 ± 0.075
